From patent publication US20200087373A1 (UNIVERSITY OF COPENHAGEN, published 2020)
Ends that are not written are not given here. * marks the point of attachment. C16 diacid = O=C(O)CCCCCCCCCCCCCCC(=O)*

T1: human GIP receptor (human, UniProt P48546 22-466)
T1 sequence (looked up): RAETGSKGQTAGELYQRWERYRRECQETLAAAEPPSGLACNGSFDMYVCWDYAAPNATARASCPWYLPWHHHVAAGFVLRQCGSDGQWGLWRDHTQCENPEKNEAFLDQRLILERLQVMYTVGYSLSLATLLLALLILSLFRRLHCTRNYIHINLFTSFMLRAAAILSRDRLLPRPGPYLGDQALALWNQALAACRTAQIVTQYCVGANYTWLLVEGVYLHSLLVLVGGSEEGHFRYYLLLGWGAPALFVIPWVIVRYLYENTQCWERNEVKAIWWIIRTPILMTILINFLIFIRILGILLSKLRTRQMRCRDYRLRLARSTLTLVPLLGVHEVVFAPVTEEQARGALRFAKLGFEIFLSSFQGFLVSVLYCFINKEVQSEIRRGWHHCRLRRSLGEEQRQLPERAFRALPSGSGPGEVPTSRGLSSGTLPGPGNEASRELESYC


Tests used:
[1] = target: T1, human GIP receptor; experiment: cell-based or functional assay
[2] = target: T1, human GIP receptor; experiment: 125I-hGIP(1-42) competition binding, COS-7 cells expressing human GIPR, with 2% HSA;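 also: nonspecific signal taken as radioligand bound to untransfected cells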
Method: (§1) After incubation, the cells were washed twice in ice-cold binding buffer (+/−2% HSA) and lysed using 200 mM NaOH with 1% SDS for 30 min. Nonspecific binding was determined as the binding of radioactive ligand to untransfected cells.

[3] = target: T1, human GIP receptor; experiment: 125I-hGIP(1-42) competition binding, COS-7 cells expressing human GIPR, without HSA;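 also: nonspecific binding defined as radioligand bound to cells lacking the transfected receptor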
Method: as §1

[4] = target: T1, human GIP receptor; experiment: ratio of Ki with 2% HSA to Ki without HSA, 125I-hGIP competition binding on hGIPR COS-7 cells;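 also: nonspecific binding was defined as radioligand signal on cells lacking the receptor transfection, with cell lysates measured after washes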
Method: as §1

Row | Binder | cAMP accumulation Fold (fold change from GIP(5-30)NH2) [1] [fold] | cAMP accumulation IC50 [1] [nM] | cAMP accumulation logIC50 [1] | Ki [2] [nM] | Ki [3] [nM] | Fold (Ki + HSA / Ki - HSA) [4] [fold]
1 | TFISK(C16 diacid)YSIAMDKIHQQDFVNWLLAQK-NH2 (N-terminus assumed; SMILES CC[C@H](C)[C@H](NC(=O)[C@H](CO)NC(=O)[C@H](Cc1ccc(O)cc1)NC(=O)[C@H](CCCCNC(=O)CCCCCCCCCCCCCCC(=O)O)NC(=O)[C@H](CO)NC(=O)[C@@H](NC(=O)[C@H](Cc1ccccc1)NC(=O)[C@@H](N)[C@@H](C)O)[C@@H](C)CC)C(=O)N[C@@H](C)C(=O)N[C@@H](CCSC)C(=O)N[C@@H](CC(=O)O)C(=O)N[C@@H](CCCCN)C(=O)N[C@H](C(=O)N[C@@H](Cc1c[nH]cn1)C(=O)N[C@@H](CCC(N)=O)C(=O)N[C@@H](CCC(N)=O)C(=O)N[C@@H](CC(=O)O)C(=O)N[C@@H](Cc1ccccc1)C(=O)N[C@H](C(=O)N[C@@H](CC(N)=O)C(=O)N[C@@H](Cc1c[nH]c2ccccc12)C(=O)N[C@@H](CC(C)C)C(=O)N[C@@H](CC(C)C)C(=O)N[C@@H](C)C(=O)N[C@@H](CCC(N)=O)C(=O)N[C@@H](CCCCN)C(N)=O)C(C)C)[C@@H](C)CC) [AT171 [hGIP(5-30)NH2[D9K]-C16diacid/9]] | 1.1 | 31.6 | -7.5 log(M) | 500 | 79.1 | 6.3
2 | TFISDK(C16 diacid)SIAMDKIHQQDFVNWLLAQK-NH2 (N-terminus assumed; SMILES CC[C@H](C)[C@H](NC(=O)[C@H](CO)NC(=O)[C@H](CCCCNC(=O)CCCCCCCCCCCCCCC(=O)O)NC(=O)[C@H](CC(=O)O)NC(=O)[C@H](CO)NC(=O)[C@@H](NC(=O)[C@H](Cc1ccccc1)NC(=O)[C@@H](N)[C@@H](C)O)[C@@H](C)CC)C(=O)N[C@@H](C)C(=O)N[C@@H](CCSC)C(=O)N[C@@H](CC(=O)O)C(=O)N[C@@H](CCCCN)C(=O)N[C@H](C(=O)N[C@@H](Cc1c[nH]cn1)C(=O)N[C@@H](CCC(N)=O)C(=O)N[C@@H](CCC(N)=O)C(=O)N[C@@H](CC(=O)O)C(=O)N[C@@H](Cc1ccccc1)C(=O)N[C@H](C(=O)N[C@@H](CC(N)=O)C(=O)N[C@@H](Cc1c[nH]c2ccccc12)C(=O)N[C@@H](CC(C)C)C(=O)N[C@@H](CC(C)C)C(=O)N[C@@H](C)C(=O)N[C@@H](CCC(N)=O)C(=O)N[C@@H](CCCCN)C(N)=O)C(C)C)[C@@H](C)CC) [AT172 [hGIP(5-30)NH2[Y10K]-C16diacid/10]] | 14.1 | 389 | -6.41 log(M) | 807 | 281 | 2.8
3 | TFISDYK(C16 diacid)IAMDKIHQQDFVNWLLAQK-NH2 (N-terminus assumed; SMILES CC[C@H](C)[C@H](NC(=O)[C@H](CCCCNC(=O)CCCCCCCCCCCCCCC(=O)O)NC(=O)[C@H](Cc1ccc(O)cc1)NC(=O)[C@H](CC(=O)O)NC(=O)[C@H](CO)NC(=O)[C@@H](NC(=O)[C@H](Cc1ccccc1)NC(=O)[C@@H](N)[C@@H](C)O)[C@@H](C)CC)C(=O)N[C@@H](C)C(=O)N[C@@H](CCSC)C(=O)N[C@@H](CC(=O)O)C(=O)N[C@@H](CCCCN)C(=O)N[C@H](C(=O)N[C@@H](Cc1c[nH]cn1)C(=O)N[C@@H](CCC(N)=O)C(=O)N[C@@H](CCC(N)=O)C(=O)N[C@@H](CC(=O)O)C(=O)N[C@@H](Cc1ccccc1)C(=O)N[C@H](C(=O)N[C@@H](CC(N)=O)C(=O)N[C@@H](Cc1c[nH]c2ccccc12)C(=O)N[C@@H](CC(C)C)C(=O)N[C@@H](CC(C)C)C(=O)N[C@@H](C)C(=O)N[C@@H](CCC(N)=O)C(=O)N[C@@H](CCCCN)C(N)=O)C(C)C)[C@@H](C)CC) [AT173 [hGIP(5-30)NH2[S11K]-C16diacid/11]] | 0.3 | 9.1 | -8.04 log(M) | 58.7 | 6 | 9.7
4 | TFISDYSK(C16 diacid)AMDKIHQQDFVNWLLAQK-NH2 (N-terminus assumed; SMILES CC[C@H](C)[C@H](NC(=O)[C@H](CCCCN)NC(=O)[C@H](CC(=O)O)NC(=O)[C@H](CCSC)NC(=O)[C@H](C)NC(=O)[C@H](CCCCNC(=O)CCCCCCCCCCCCCCC(=O)O)NC(=O)[C@H](CO)NC(=O)[C@H](Cc1ccc(O)cc1)NC(=O)[C@H](CC(=O)O)NC(=O)[C@H](CO)NC(=O)[C@@H](NC(=O)[C@H](Cc1ccccc1)NC(=O)[C@@H](N)[C@@H](C)O)[C@@H](C)CC)C(=O)N[C@@H](Cc1c[nH]cn1)C(=O)N[C@@H](CCC(N)=O)C(=O)N[C@@H](CCC(N)=O)C(=O)N[C@@H](CC(=O)O)C(=O)N[C@@H](Cc1ccccc1)C(=O)N[C@H](C(=O)N[C@@H](CC(N)=O)C(=O)N[C@@H](Cc1c[nH]c2ccccc12)C(=O)N[C@@H](CC(C)C)C(=O)N[C@@H](CC(C)C)C(=O)N[C@@H](C)C(=O)N[C@@H](CCC(N)=O)C(=O)N[C@@H](CCCCN)C(N)=O)C(C)C) [AT174 [hGIP(5-30)NH2[I12K]-C16diacid/12]] | 0.9 | 23.4 | -7.63 log(M) | 342 | 56.1 | 6.1
5 | TFISDYSIK(C16 diacid)MDKIHQQDFVNWLLAQK-NH2 (N-terminus assumed; SMILES CC[C@H](C)[C@H](NC(=O)[C@H](CCCCN)NC(=O)[C@H](CC(=O)O)NC(=O)[C@H](CCSC)NC(=O)[C@H](CCCCNC(=O)CCCCCCCCCCCCCCC(=O)O)NC(=O)[C@@H](NC(=O)[C@H](CO)NC(=O)[C@H](Cc1ccc(O)cc1)NC(=O)[C@H](CC(=O)O)NC(=O)[C@H](CO)NC(=O)[C@@H](NC(=O)[C@H](Cc1ccccc1)NC(=O)[C@@H](N)[C@@H](C)O)[C@@H](C)CC)[C@@H](C)CC)C(=O)N[C@@H](Cc1c[nH]cn1)C(=O)N[C@@H](CCC(N)=O)C(=O)N[C@@H](CCC(N)=O)C(=O)N[C@@H](CC(=O)O)C(=O)N[C@@H](Cc1ccccc1)C(=O)N[C@H](C(=O)N[C@@H](CC(N)=O)C(=O)N[C@@H](Cc1c[nH]c2ccccc12)C(=O)N[C@@H](CC(C)C)C(=O)N[C@@H](CC(C)C)C(=O)N[C@@H](C)C(=O)N[C@@H](CCC(N)=O)C(=O)N[C@@H](CCCCN)C(N)=O)C(C)C) [AT175 [hGIP(5-30)NH2[A13K]-C16diacid/13]] | 0.5 | 14.1 | -7.85 log(M) | 498 | 53 | 9.4
6 | TFISDYSIAK(C16 diacid)DKIHQQDFVNWLLAQK-NH2 (N-terminus assumed; SMILES CC[C@H](C)[C@H](NC(=O)[C@H](CO)NC(=O)[C@H](Cc1ccc(O)cc1)NC(=O)[C@H](CC(=O)O)NC(=O)[C@H](CO)NC(=O)[C@@H](NC(=O)[C@H](Cc1ccccc1)NC(=O)[C@@H](N)[C@@H](C)O)[C@@H](C)CC)C(=O)N[C@@H](C)C(=O)N[C@@H](CCCCNC(=O)CCCCCCCCCCCCCCC(=O)O)C(=O)N[C@@H](CC(=O)O)C(=O)N[C@@H](CCCCN)C(=O)N[C@H](C(=O)N[C@@H](Cc1c[nH]cn1)C(=O)N[C@@H](CCC(N)=O)C(=O)N[C@@H](CCC(N)=O)C(=O)N[C@@H](CC(=O)O)C(=O)N[C@@H](Cc1ccccc1)C(=O)N[C@H](C(=O)N[C@@H](CC(N)=O)C(=O)N[C@@H](Cc1c[nH]c2ccccc12)C(=O)N[C@@H](CC(C)C)C(=O)N[C@@H](CC(C)C)C(=O)N[C@@H](C)C(=O)N[C@@H](CCC(N)=O)C(=O)N[C@@H](CCCCN)C(N)=O)C(C)C)[C@@H](C)CC) [AT176 [hGIP(5-30)NH2[M14K]-C16diacid/14]] | 3.8 | 105 | -6.98 log(M) | 420 | 82.6 | 5.1
7 | TFISDYSIAMK(C16 diacid)KIHQQDFVNWLLAQK-NH2 (N-terminus assumed; SMILES CC[C@H](C)[C@H](NC(=O)[C@H](CO)NC(=O)[C@H](Cc1ccc(O)cc1)NC(=O)[C@H](CC(=O)O)NC(=O)[C@H](CO)NC(=O)[C@@H](NC(=O)[C@H](Cc1ccccc1)NC(=O)[C@@H](N)[C@@H](C)O)[C@@H](C)CC)C(=O)N[C@@H](C)C(=O)N[C@@H](CCSC)C(=O)N[C@@H](CCCCNC(=O)CCCCCCCCCCCCCCC(=O)O)C(=O)N[C@@H](CCCCN)C(=O)N[C@H](C(=O)N[C@@H](Cc1c[nH]cn1)C(=O)N[C@@H](CCC(N)=O)C(=O)N[C@@H](CCC(N)=O)C(=O)N[C@@H](CC(=O)O)C(=O)N[C@@H](Cc1ccccc1)C(=O)N[C@H](C(=O)N[C@@H](CC(N)=O)C(=O)N[C@@H](Cc1c[nH]c2ccccc12)C(=O)N[C@@H](CC(C)C)C(=O)N[C@@H](CC(C)C)C(=O)N[C@@H](C)C(=O)N[C@@H](CCC(N)=O)C(=O)N[C@@H](CCCCN)C(N)=O)C(C)C)[C@@H](C)CC) [AT177 [hGIP(5-30)NH2[D15K]-C16diacid/15]] | 1.3 | 37.2 | -7.43 log(M) | 444 | 117 | 3.8
